Measurements: publication PMC6755090

B1: AsiA (natural protein, bacteriophage T4)
chain: MNKNIDTVREIITVASILIKFSREDIVENRANFIAFLNEIGVTHEGRKLNQNSFRKIVSELTQEDKKTLIDEFNEGFEGVYRYLEMYTNK
notes: AsiA, anti-sigma 70 protein of bacteriophage T4; synthetic gene in pET28a; A6 is the C-terminal helix; also called AisA; N-hexahistidine-tagged AsiA; source: E. coli BL21(DE3), plasmid pET28a-NH-AsiA, purified (Ni-NTA, Mono Q)
B2: MotA (natural protein, bacteriophage T4, UniProt P22915 1-211, looked up)
chain: MSKVTYIIKASNDVLNEKTATILITIAKKDFITAAEVREVHPDLGNAVVNSNIGVLIKKGLVEKSGDGLIITGEAQDIISNAATLYAQENAPELLKKRATRKAREITSDMEEDKDLMLKLLDKNGFVLKKVEIYRSNYLAILEKRTNGIRNFEINNNGNMRIFGYKMMEHHIQKFTDIGMSCKIAKNGNVYLDIKRSAENIEAVITVASEL
notes: synthetic gene in pET21a; source: E. coli BL21(DE3), plasmid pET21a-MotA, purified (HiTrap Heparin, Mono S)
B3: irrelevant DNA scaffold (FP) (dsDNA)
DNA 1: GCAAATGAGCAACA
DNA 2: TGTTGCTCATTTGC

Assays:
Escherichia coli σ^70 = target: T1, Escherichia coli σ^70 (Escherichia coli, UniProt P00579 1-613); assay: cryo-EM structure; σ appropriation complex assembled from σ^70, AsiA, RNAP core enzyme, MotA and a P_(uvsX) DNA scaffold, purified on Superose 6 in 10 mM HEPES pH 7.5, 50 mM KCl; 8 mM CHAPSO added; 3.79 Å; conditions: both partners purified
T1 construct: RNA polymerase sigma factor σ^70 (RpoD) of Escherichia coli; holds σR2, σR3, σR3.2 and σR4 (helices S1-S5); also called principle σ factor

AsiA = target: T2, AsiA (bacteriophage T4, UniProt P32267 1-90); assay: fluorescence polarization; comparable affinity to the promoter scaffold; KD only in figure; FP: 10 mM HEPES pH 7.5, 50 mM KCl, 25°C, 0.1 μM DNA, 0-100 μM AsiA; EMSA: 7 mM Tris-HCl and 50 mM Tris-Ac pH 7.9, 0.19 M KGlu, 5 mM MgAc2, 50 mM K-phosphate pH; conditions: protein: recombinant; tags: N-His6; label: 5' 6-FAM
T2 sequence: B1 chain

T1 sequence (P00579 whole entry): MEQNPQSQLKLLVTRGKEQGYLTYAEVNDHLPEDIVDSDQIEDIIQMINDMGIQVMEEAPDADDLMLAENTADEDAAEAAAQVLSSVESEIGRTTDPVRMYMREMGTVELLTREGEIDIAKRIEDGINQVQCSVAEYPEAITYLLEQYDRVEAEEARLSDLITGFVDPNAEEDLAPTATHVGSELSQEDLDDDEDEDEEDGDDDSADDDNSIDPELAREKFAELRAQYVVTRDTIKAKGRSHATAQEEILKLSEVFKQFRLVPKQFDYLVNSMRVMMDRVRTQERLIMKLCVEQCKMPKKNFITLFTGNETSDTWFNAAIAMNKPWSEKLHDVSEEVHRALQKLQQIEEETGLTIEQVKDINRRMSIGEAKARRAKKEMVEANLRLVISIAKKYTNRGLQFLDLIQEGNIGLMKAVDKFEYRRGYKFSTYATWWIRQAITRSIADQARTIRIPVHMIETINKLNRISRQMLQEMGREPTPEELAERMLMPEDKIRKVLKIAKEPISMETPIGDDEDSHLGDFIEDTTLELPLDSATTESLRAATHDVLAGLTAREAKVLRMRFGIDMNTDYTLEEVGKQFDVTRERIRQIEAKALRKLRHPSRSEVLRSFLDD

Binder | binding result (Escherichia coli σ^70) | binding result (AsiA)
B1 | binds | 
B2 | binds | 
B3 |  | binds
